Results reported in paper PMC3338918 (Angiogenesis, 2012).

Biological target: T1, hVEGFR3-hFc (human, UniProt P35916 25-775)
T1 construct: human VEGFR3; source: bought: R&D Systems
T1 sequence (looked up): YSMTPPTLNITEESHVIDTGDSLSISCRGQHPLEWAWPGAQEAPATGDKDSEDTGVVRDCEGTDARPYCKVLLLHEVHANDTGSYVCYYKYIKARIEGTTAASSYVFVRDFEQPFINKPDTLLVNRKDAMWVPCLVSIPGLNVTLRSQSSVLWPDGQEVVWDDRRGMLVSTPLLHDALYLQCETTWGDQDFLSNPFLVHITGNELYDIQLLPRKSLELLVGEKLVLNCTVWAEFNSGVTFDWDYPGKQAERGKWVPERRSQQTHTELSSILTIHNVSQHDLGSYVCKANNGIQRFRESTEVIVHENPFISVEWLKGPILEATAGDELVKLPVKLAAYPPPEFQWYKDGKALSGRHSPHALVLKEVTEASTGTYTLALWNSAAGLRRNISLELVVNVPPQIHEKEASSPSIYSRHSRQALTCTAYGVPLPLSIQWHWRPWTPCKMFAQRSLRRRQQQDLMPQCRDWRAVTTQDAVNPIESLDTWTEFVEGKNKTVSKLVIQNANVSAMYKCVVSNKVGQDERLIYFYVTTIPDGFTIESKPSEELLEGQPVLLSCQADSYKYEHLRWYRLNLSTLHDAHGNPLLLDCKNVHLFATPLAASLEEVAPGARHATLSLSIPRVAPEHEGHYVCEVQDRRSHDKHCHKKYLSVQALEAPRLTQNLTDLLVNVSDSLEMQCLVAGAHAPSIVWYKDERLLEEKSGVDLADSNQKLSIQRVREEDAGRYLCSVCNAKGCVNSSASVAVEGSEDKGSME
Assay: SPR; Biacore 3000, CM5 chip, 25°C, HBS-T (10 mM Hepes, 150 mM NaCl, 3.4 mM EDTA, 0.05% polysorbate 20, pH 7.4); VEGF Trap or receptor-Fc captured at low density on amine-coupled Protein A, ligands injected (1.0–0.062 nM VEGF-A, 2.5–0.156 nM VEGF-B(10-108), 5.0–0.078 nM PlGF); kd of VEGF-A ligands by the 'fixed kd' procedure on a Biacore 2000 (~2–3 h); KD = kd/ka
Settings: both partners purified

B1: human VEGF-D (ligand, UniProt O43915 89-205, looked up)
chain: FAATFYDIETLKVIDEEWQRTQCSPRETCVEVASELGKSTNTFFKPPCVNVFRCGGCCNEESLICMNTSTSYISKQLFEISVPLTSVPELVPVKVANHTGCKCLPTAPRHPYSIIRR
notes: human VEGF-D; source: bought: R&D Systems
  binding result: binds

B2: human VEGF-C (ligand, UniProt P49767 112-227, looked up)
chain: AHYNTEILKSIDNEWRKTQCMPREVCIDVGKEFGVATNTFFKPPCVSVYRCGGCCNSEGLQCMNTSTSYLSKTLFEITVPLSQGPKPVTISFANHTSCRCMSKLDVYRQVHSIIRR
notes: human VEGF-C; source: bought: R&D Systems
  binding result: binds
